For this assay, the system named is wtTNFβ, TNF-α promoter from −991 to 1. The assay is described as follows: Luciferase reporter assay, wild-type TNF-α promoter, WTK-1. The class given is cell-based. Particulars: WTK-1 cells; normalized to β-gal; LITAF overexpressed alone without LPS stimulation. An excerpt: FIG. 10 is a graphical representation of the analysis of LITAF function in luciferase reporter constructs. The series of TNF-α promoter DNA fragments were subcloned into the pGL3 basic vector (Pharmacia), a promoterless and enhancerless luciferase reporter gene. One construct, named wtTNFβ, contained TNF-α promoter from −991 to 1. Another one, mtTNFβ1, was a mutant inserted with the promoter from −991 to 1, but lacking the LITAF binding site. WTK-1 cells (grown to 85% confluence) in a 6-well plate at 1.2×10^5 cells/well were co-transfected with 1 μg DNAs including pCMV-LITAF recombinant vector, pVMVβ-gal and pGL3 basic as control by Fugene 6 (Roche Molecular Biochemicals) for 3 hrs, washed with PBS twice, then individually stimulated with LPS or Chariot/peptide complex of 100 ng/ml peptide B (peptide fragment of LITAF representing aa 152-228) or HA as control for 3 hrs, washed with PBS, incubated at 37° C., 5% CO2, o/n. The β-galactosidase gene was included in all transfections. The cells were harvested and lysed approximately 12 hrs after transfection. The promoter activity from each lysate sample was measured using the luciferase reporter assay system (Promega) and normalized to β-gal expression in the same sample, as described in the methods section below.
The activation of TNF-α gene expression by LITAF was investigated. […]
(Reporter assays use an easily measured gene product as a stand-in for the process of interest.)

B1: exogenous LITAF: full-length human LITAF (SEQ ID NO. 1) overexpressed from the pCMV-LITAF recombinant vector (protein, listed as Homo sapiens)
chain: MSVPGPYQAATGPSSAPSAPPSYEETVAVNSYYPTPPAPMPGPTTGLVTGPDGKGMNPPSYYTQPAPIPNNNPITVQTVYVQHPITFLDRPIQMCCPSCNKMIVSQLSYNAGALTWLSCGSLCLLGVHSGLLLHPLLRGCPAGRGPLLSQLQSSPGHLQAFVGLSQTWREPGAAGSPFHLSSSFTPGGGSALVVSPLQGAHLHVFFWGEYVAKLTNLQTPEIAAWSRA
As for B1, the “TNF-α promoter activity (luciferase), wild-type promoter/reporter plasmid” value came out at 2.5 fold.

(Values after patent US7361735B2, “LITAF binding site peptides and methods of using the same” (Trustees of Boston University, priority 2003, dated 2008).)
